In patent US5077204A, “Yeast endopeptidase for basic amino-acid site cleavage, preparation and use” (Chiron Corporation, priority 1988, dated 1991):

Legend:
[1] = test system: human proinsulin (alpha-factor leader-proinsulin fusion); assay: Processing of proinsulin in yeast transformed with KEX2 containing vectors; type: cell-based, yeast strains AB109 and AB103.1; conditions: yeast transformed with pYBCA5-KEX2 versus pYBCA5; cleavage between alpha-factor leader and proinsulin, B/C and C/A junctions
Description: Plasmids containing proinsulin and KEX2 genes (pYBCA5-KEX2 or pYBCA5-KEX4) or control plasmids with only proinsulin sequences (pYBCA5) or no insert (pCl/1) were used to transform kex2^- mutant yeast strain AB109 (Matα, kex2-1, ade2-1, his^-, leu2-3,112, trpl^-289, ura3-25 ura3-52, (KIL-k), cir° ) or KEX2^+ yeast strain AB103.1 (matα, pep4-3, leu2-3, leu2-112, ura3-52, his4-580, cir° ) following the procedure of Hinnen et al., Proc. Natl. Acad. Sci. USA (1978) 75:1929-1933. Transformants were grown in a low sulfate medium (LSM) containing 0.1 mM (NH4)2 SO4 until mid-exponential phase (OD660 nm 1-3), collected by centrifugation and resuspended in LSM containing 0.25 mCi of carrier free [ ^35 S]SO4^2- at an OD660 =2. After 10 min incubation, a 50-fold excess of (NH4)2 SO4 was added and cells were further incubated for 15-30 min. After centrifugation, proteins present in the cell free extract were precipitated with 12% trichloroacetic acid, 0.5 mg/ml deoxycholate. The precipitate was resuspended, reduced and alkylated and submitted to protein acrylamide gel electrophoresis (Laemmli, Nature (1970) 227:680). Gels were fixed, fluorographed, dried and exposed to Kodak XAR-5 film at -70° C.

[2] = target: T1, KEX2 endopeptidase (kex2[YEp24-pJ2B] membranes) (Saccharomyces cerevisiae, UniProt P13134); assay: Endopeptidase activity in membranes from kex2 cells carrying multicopy plasmid pJ2B (over-produced specific endopeptidase); type: biochemical, S. cerevisiae
T1 construct: not only includes the KEX2 gene, but also the necessary transcriptional and translational regulatory signals for expression in yeast; expressed in transfected cells; host or cells: S. cerevisiae XBH16-15A (MATalpha kex2-1) carrying YEp24-pJ2B
T1 sequence (P13134 114-814): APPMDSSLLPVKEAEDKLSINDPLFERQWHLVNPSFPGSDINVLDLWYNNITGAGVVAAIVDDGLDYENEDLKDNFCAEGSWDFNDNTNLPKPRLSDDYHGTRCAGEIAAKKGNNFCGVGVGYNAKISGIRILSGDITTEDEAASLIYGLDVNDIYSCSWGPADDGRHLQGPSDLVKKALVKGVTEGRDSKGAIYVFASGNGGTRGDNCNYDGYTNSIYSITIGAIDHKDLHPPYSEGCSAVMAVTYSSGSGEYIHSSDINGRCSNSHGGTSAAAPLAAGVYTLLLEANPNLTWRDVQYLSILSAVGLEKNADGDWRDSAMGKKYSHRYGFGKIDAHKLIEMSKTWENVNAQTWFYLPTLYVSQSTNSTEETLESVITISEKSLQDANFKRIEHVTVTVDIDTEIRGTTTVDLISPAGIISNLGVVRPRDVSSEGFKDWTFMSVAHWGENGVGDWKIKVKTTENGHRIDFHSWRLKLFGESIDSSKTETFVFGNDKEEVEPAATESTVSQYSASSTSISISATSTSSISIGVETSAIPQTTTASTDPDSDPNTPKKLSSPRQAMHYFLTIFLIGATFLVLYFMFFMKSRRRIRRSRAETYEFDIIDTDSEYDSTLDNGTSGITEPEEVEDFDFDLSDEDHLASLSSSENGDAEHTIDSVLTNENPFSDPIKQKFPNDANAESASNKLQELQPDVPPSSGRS
Protocol: Permeabilization of whole yeast cells with the non-ionic detergent Brij 58, preparation of crude membrane fractions, and measurement of protein concentration were conducted by the methods described previously (Julius et al., 1983, supra), incorporated herein by reference. To measure peptidase activity, samples of permeabilized cells or membrane material were added to a reaction mixture containing 0.1-0.5 mM fluorogenic peptide substrate (added from a 20 mM stock dissolved in DMSO) and 200 mM HEPES-Tris (pH 7.0), in a final volume of 0.4 ml. Following incubation for 30 min at 37° C., whole cells were removed by centrifugation in a microfuge (Eppendorf) and membrane material was removed by Ba(OH)2 -ZnSO4 precipitation. The amount of fluorescence formed in the supernatant solution was determined in a fluorescence spectrophotometer (Perkin-Elmer, Model MPF-44B), set either at an excitation wavelength of 335 nm and an emission wavelength of 410 nm (for measurement of β-naphthylamine) or at an excitation wavelength of 380 nm and an emission wavelength of 460 nm (for measurement of 7-amino-4-methyl-coumarin, AMC). To determine the number of moles of substrate hydrolyzed, the fluorescence yield of samples was compared to a standard curve prepared with known concentrations of authentic AMC dissolved in the same buffer.
Cells of strain XBH1615A that had been transformed with the plasmids
indicated, or that contained pJ2B in integrated form, were grown in SCUra
and membranes were prepared as described in the Experimental.
Endopeptidase activity was assayed as described in the Experimental. All
substrates tested were present at 0.1 mM.
Endopeptidase activity was assayed using Boc--GlnArgArg--MCA as the
substrate, as outlined in the Experimental. All inhibitors were added fro
a 0.1 M stock dissolved in dimethyl sulfoxide.

B1: KEX2 endopeptidase: yeast endopeptidase, product of the KEX2 gene, cleaving on the carboxyl side of a pair of basic amino acids (protein, UniProt P13134 114-814, looked up)
Kexin: T1 sequence (P13134 114-814)
Processing of proinsulin (autoradiography of secreted insulin-related bands) [1]: able to process proinsulin at specific cleavage sites | pH optimum [2]: 7.0-7.5 | Activity at pH 5.0 ([2]; pH 5.0): little activity detected | Activity at pH 8.5 ([2]; pH 8.5): about half-maximal activity
